Results on 6 molecules are retold here after US20200002432A1, “ANTI-CD98 ANTIBODIES AND ANTIBODY DRUG CONJUGATES” (AbbVie Inc., priority 2016, published 2020).

One experiment concerns the target T1, human CD98 (Homo sapiens, UniProt P08195).
T1 sequence (P08195 1-630 isoform P08195-1): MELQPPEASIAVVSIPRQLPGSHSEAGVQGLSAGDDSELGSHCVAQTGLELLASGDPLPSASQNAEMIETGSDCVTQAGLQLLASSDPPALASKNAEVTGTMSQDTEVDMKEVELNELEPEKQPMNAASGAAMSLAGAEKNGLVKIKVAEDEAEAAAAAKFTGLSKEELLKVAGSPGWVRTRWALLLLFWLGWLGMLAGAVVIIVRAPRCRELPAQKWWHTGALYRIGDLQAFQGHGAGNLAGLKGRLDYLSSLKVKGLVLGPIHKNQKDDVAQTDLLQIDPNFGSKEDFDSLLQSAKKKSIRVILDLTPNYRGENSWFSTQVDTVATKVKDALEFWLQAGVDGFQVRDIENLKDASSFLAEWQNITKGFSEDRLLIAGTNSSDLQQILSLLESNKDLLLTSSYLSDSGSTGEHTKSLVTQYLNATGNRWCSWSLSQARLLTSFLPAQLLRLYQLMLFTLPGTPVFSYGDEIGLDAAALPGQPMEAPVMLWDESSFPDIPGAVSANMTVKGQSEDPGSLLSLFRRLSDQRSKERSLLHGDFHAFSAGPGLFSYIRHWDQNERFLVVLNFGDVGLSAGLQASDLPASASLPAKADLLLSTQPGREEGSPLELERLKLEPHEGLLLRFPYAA
Description: Binding of humanized anti-CD98 antibodies to human CD98. To be noted: humanized variants of huAb3/huAb15 and framework engineered antibodies.

The subject of experiment [1] is cynomolgus monkey CD98 ECD (cyCD98 ECD). The experiment is described as follows: Biacore surface plasmon resonance binding kinetics, anti-Fc capture. To be noted: framework re-engineered mAbs, Table 24. The method, then:
(§1) The binding kinetics of these purified mouse and rat monoclonal anti-CD98 antibodies for purified recombinant CD98 protein (extracellular domain, ECD) were determined by surface plasmon resonance-based measurements made on Biacore T100/T200 instruments (GE Healthcare, Piscataway, N.J.) at 25° C. using an anti-Fc capture assay approach. Binding kinetic measurements were made in the assay buffer HBS-EP+: 10 mM Hepes, pH 7.4, 150 mM NaCl, 3 mM EDTA, 0.05% Tween 20). For example, approximately 8000 RU of anti-Fc (species specific) polyclonal antibody (Thermo Fisher Scientific Inc., Rockford, Ill.) diluted in 10 mM sodium acetate (pH 4.5) was directly immobilized across a CM5 research grade biosensor chip using a standard amine coupling kit according to manufacturer's instructions and procedures at 25 μg/ml. Unreacted moieties on the biosensor surface were blocked with ethanolamine. The test antibody to be captured as a ligand was diluted in running buffer to ˜0.5 μg/mL and injected over anti-Fc surface at a flow rate of 10 μL/min. CD98 binding and dissociation were observed under a continuous flow rate of 80 μL/min. Human and cynomolgus monkey CD98 ECDs, both with a C-terminal His-tag, are used for this study (Table 3). After each cycle the anti-Fc capture surface was regenerated using 10 mM Glycine-HCl, pH 1.5. During the assay, all measurements were referenced against the capture surface alone (i.e., with no captured test antibody) and buffer-only injections (no antigen) were used for double referencing. For kinetic analysis, rate equations derived from the 1:1 Langmuir binding model were fitted simultaneously, globally and with mass transfer term included to multiple referenced antigen binding curves using Biacore T100/T200 Evaluation software.
(§2) The in vitro binding activities of the recombinant anti-CD98 chimeric mAbs were measured against both recombinant CD98 extracellular domain proteins (ECDs) and CD98-expressing cells. Briefly, binding kinetics of anti-CD98 chimera mAbs for human and cynomolgus CD98 ECDs were determined by surface plasmon resonance-based measurements as described in Example 4. Table 10 reported the association and dissociation rate constants for CD98 binding, ka (M^−1s^−1) and […], and the equilibrium dissociation constant KD (M) of the interaction between antibodies and the target antigen. Binding of anti-CD98 chimera mAbs for CD98 on cell surface was evaluated by flow cytometry against CHO-K1 cell line stably transfected to express human CD98 and 3T12 cell line stably transfected to express cynomolgus monkey CD98. Data was analyzed using Graphpad Prism software and EC50 values were reported as the concentration of antibody to achieve 50% of maximal binding to CD98-expressing cells (Table 10).
(§3) The binding kinetics of the recombinant anti-CD98 chimeric antibodies for purified recombinant CD98 protein (extracellular domain. ECD) were determined by surface plasmon resonance-based measurements, as described in the Example 4.
A general note: SPR reads the build-up and loss of mass on a sensor chip optically.

The target in experiment [2] is T2, human CD98 ECD (huCD98 ECD) (Homo sapiens, UniProt P08195).
T2 construct: His6 (with AAA linker) (C)
T2 sequence (P08195 with tags, fused parts or gaps): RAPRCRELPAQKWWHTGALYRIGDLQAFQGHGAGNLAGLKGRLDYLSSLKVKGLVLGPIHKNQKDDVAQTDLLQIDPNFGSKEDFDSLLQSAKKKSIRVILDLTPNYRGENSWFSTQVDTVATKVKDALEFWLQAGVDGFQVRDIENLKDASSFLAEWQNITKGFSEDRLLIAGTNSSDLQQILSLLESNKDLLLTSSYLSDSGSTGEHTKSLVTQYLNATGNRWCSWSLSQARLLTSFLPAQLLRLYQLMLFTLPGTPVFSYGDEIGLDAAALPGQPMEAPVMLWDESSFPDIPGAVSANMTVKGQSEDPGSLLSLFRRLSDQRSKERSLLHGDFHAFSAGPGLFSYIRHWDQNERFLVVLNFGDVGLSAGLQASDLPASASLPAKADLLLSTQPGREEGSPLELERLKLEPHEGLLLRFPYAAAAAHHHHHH
The experiment is described as above. The note with it: framework re-engineered mAbs, Table 24. The method, then: as §1, §2, §3

For experiment [3], the target named is T3, Human CD98 ECD with C-terminal His-tag (human, UniProt P08195 105-529).
T3 construct: also called huCD98 ECD; recombinant human CD98 extracellular domain
T3 sequence: T2 sequence (P08195 with tags, fused parts or gaps)
Description: SPR (Biacore), mAb captured on anti-Fc, CD98 ECD as analyte. The method, then:
as §1

Experiment [4] addresses T4, Cynomolgus monkey CD98 ECD with C-terminal His-tag (cynomolgus monkey, UniProt P08195 105-529 (human entry)).
T4 construct: also called cyCD98 ECD; recombinant cynomolgus monkey CD98 extracellular domain
T4 chain: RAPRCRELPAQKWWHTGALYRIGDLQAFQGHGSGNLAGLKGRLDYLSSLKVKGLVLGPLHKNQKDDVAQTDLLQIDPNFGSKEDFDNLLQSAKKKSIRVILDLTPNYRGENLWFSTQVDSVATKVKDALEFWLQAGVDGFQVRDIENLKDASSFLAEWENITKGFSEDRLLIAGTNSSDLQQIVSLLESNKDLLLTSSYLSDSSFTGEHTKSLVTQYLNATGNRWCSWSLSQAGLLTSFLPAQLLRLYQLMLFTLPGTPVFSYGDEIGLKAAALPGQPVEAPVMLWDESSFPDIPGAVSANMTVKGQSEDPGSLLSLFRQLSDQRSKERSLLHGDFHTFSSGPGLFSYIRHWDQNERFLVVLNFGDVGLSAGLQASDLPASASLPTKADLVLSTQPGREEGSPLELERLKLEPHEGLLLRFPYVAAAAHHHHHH
The experiment is described as above. The method, then:
as §1

Positions count from the first letter of the chain named.

In general, Kd refers to the constant that tells how readily two partners part at equilibrium. By koff is commonly meant a measure of how fast the partners let go of each other. Usually kon stands for the rate constant with which the complex forms.

B1: huAb101: humanized framework engineered anti-CD98 antibody; heavy chain variable SEQ ID NO: 106, light chain variable SEQ ID NO: 107 (antibody, V domains shown)
VH: EVQLVESGGGLVKPGGSLRLSCATSGFTFIDYYMSWVRQAPGKGLEWLGFIRNKANRYTTEYSASVKGRFTISRDNSKSILYLQMNSLKTEDTAVYYCTRDRPAWFVYWGQGTLVTVSS
VL: DIVMTQTPLSLPVTPGEPASISCKSSQSLLYSSNQKNYLAWYLQKPGQSPQLLIYWASTRESGVPDRFSGSGSGTDFTLKISRVEAEDVGVYYCQQYYSYPYTFGGGTKVEIK
For B1, in the experiment with human CD98, the “binding to human CD98” value is “maintained binding to human CD98”. In addition, in experiment [1], the “ka, cynoCD98 ECD” value worked out at 30000 M⁻¹ s⁻¹ and the “kd, cynoCD98 ECD” value came to 0.00067 s⁻¹. Also, in experiment [2], the “ka, huCD98 ECD” value came out at 290000 M⁻¹ s⁻¹ and the “kd, huCD98 ECD” value worked out at 0.0018 s⁻¹.

B2: huAb109: humanized framework engineered anti-CD98 antibody; heavy chain variable SEQ ID NO: 116, light chain variable SEQ ID NO: 117 (antibody, V domains shown)
VH: EVQLVESGGGLVQPGGSLRLSCAASGFTFSDYTMAWVRQAPGKGLEWVATIIYDARGTYYRDAVKGRFTISRDNAKNTLYLQMNSLRAEDTAVYYCARQSDDTYYYWGYFDYWGQGTMVTVSS
VL: B1 VL with S22N, Y31F, S33G, E61Q, V91I, Y100S, G106Q, V110L
B2: in the experiment with human CD98, the “binding to human CD98” value is on record as “maintained binding to human CD98”. Further, in experiment [1], the “ka, cynoCD98 ECD” value stood at 26000 M⁻¹ s⁻¹ and the “kd, cynoCD98 ECD” value was determined as 0.00031 s⁻¹. For the same molecule, in experiment [2], the “ka, huCD98 ECD” value came out at 160000 M⁻¹ s⁻¹ and the “kd, huCD98 ECD” value amounted to 0.00017 s⁻¹.

B3: huAb105: humanized framework engineered anti-CD98 antibody; heavy chain variable SEQ ID NO: 111, light chain variable SEQ ID NO: 112 (antibody, V domains shown)
VH: B2 VH with D54S, A55G, D102H
VL: B1 VL with S22N, Y31F, S33G, E61Q, V91I, S99D, Y100V, G106Q, V110L
Consider B3, for which, in the experiment with human CD98, the “binding to human CD98” value is “maintained binding to human CD98”. For the same molecule, in experiment [1], the “ka, cynoCD98 ECD” value stood at 38000 M⁻¹ s⁻¹ and the “kd, cynoCD98 ECD” value was 5.3e-05 s⁻¹. In experiment [2], the “ka, huCD98 ECD” value is 140000 M⁻¹ s⁻¹ and the “kd, huCD98 ECD” value is 2.4e-05 s⁻¹.

B4: huAb103: humanized framework engineered anti-CD98 antibody; heavy chain variable SEQ ID NO: 109, light chain variable SEQ ID NO: 107 (antibody, V domains shown)
VH: B1 VH with N56Y, R57G
VL: B1 VL
As to B4, the “binding to human CD98” value in the experiment with human CD98 was “maintained binding to human CD98”. For the same molecule, in experiment [1], the “ka, cynoCD98 ECD” value was determined as 31000 M⁻¹ s⁻¹ and the “kd, cynoCD98 ECD” value was 0.00044 s⁻¹. In experiment [2], the “ka, huCD98 ECD” value worked out at 180000 M⁻¹ s⁻¹ and the “kd, huCD98 ECD” value came to 0.00059 s⁻¹.

B5: huAb107: humanized framework engineered anti-CD98 antibody; heavy chain variable SEQ ID NO: 114, light chain variable SEQ ID NO: 112 (antibody, V domains shown)
VH: B2 VH with D54S, A55G
VL: B1 VL with S22N, Y31F, S33G, E61Q, V91I, S99D, Y100V, G106Q, V110L
In the case of B5, the “binding to human CD98” value with human CD98 is “maintained binding to human CD98”. Moreover, in experiment [1], the “ka, cynoCD98 ECD” value amounted to 33000 M⁻¹ s⁻¹ and the “kd, cynoCD98 ECD” value was 8.7e-05 s⁻¹. In experiment [2], the “ka, huCD98 ECD” value was determined as 110000 M⁻¹ s⁻¹ and the “kd, huCD98 ECD” value is 3.8e-05 s⁻¹.

B6: Ab13 (antibody, V domains shown)
VH: EVKLQQSGDELVRPGASVKISCKASGYTFTSYSMHWVKERPGQGLEWIGAIFPIIGTTEYNQKFKGKATLTADKSSNTANMELSRLTSEDSAVYYCARVYLSYFDYWGQGVMVTVSS
VL: DIQMTQSPSFLSASVGDRVTINCKASQNINKYLDWYQRKHGEAPKLLIYNTNNLQTGIPSRFSGSGSGTDYTLTISSLQPEDVATYFCLQHSSRYTFGAGTKLELK
notes: also called anti-CD98 hybridoma mAb Ab13
In experiment [3], B6 came in with a Kd of 1.9 nM, a koff of 5.5e-05 s⁻¹ and a kon of 29000 M⁻¹ s⁻¹. In experiment [4], this molecule displayed a Kd of 47 nM, an off-rate constant (koff) of 0.00088 s⁻¹ and a kon of 19000 M⁻¹ s⁻¹.
